Results published in patent US7179886B1, “Cloning and identification of the motilin receptor” (Merck & Co., Inc., priority 1999, dated 2007).
No end group written: not given here. *: point of attachment. 125I = [125I]*

Columns and labels:
[1] = system: cells that were not transfected with the MTL-R1A cDNA expression vector; assay: Aequorin bioluminescence assay in non-transfected cells; type: cell-based, human; conditions: concentrations as high as 10 μM
[2] = target: T1, Cloned MTL-1A Receptor (human) (Homo sapiens, UniProt O43193); assay: [^125I] human motilin binding to crude membranes from HEK-293/aeq17 cells transfected with MTL-R1A cDNA; conditions: for IC50: competition binding, crude membranes, 20° C. for 1 hr., read-out: [^125I] hmotilin binding (IC50)
T1 construct: The full length open reading frame appears to contain 412 amino acids; expressed in transfected cells; host or cells: HEK-293/aeq17 (293-AEQ17), transient transfection with lipofectamine
T1 sequence (O43193 whole entry): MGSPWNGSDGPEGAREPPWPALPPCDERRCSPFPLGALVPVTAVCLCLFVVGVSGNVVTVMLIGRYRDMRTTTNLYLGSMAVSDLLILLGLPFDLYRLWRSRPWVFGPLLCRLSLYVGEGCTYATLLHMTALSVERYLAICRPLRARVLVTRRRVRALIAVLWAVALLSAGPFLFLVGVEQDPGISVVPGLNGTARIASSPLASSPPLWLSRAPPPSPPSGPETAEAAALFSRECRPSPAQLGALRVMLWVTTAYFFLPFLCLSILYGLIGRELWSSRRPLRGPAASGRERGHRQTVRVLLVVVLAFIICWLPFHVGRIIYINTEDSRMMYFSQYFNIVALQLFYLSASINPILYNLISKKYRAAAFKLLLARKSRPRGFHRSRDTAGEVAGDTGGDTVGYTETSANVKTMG
Procedure: Crude cell membranes were prepared on ice, 48 hrs. post-transfection. […] Bound radioligand was separated by rapid vacuum filtration (Brandel 48-well cell harvester) through GF/C filters pretreated for 1 hr. with 0.5% polyethylenimine.

[3] = target: T1, Cloned MTL-1A Receptor (human); assay: Aequorin bioluminescence assay in HEK-293/aeq17 cells transfected with MTL-R1A; type: cell-based; conditions: for EC50: HEK-293/aeq17 cells transfected with human MTL-R1A; for activity in MTL1-A functional and binding assays: high (10 μM) doses, statement covers functional and binding assays
Source text: A high-throughput assay was developed which measures Ca^2+realease with the bioluminescent Ca^2+sensitive-aequorin reporter protein (capable of measuring ligand-induced IP3-coupled mobilization of intracellular calcium and concomitant calcium-induced aequorin bioluminescence). […] The DNA and deduced amino acid sequence are given in SEQ. ID. NO.:2 and SEQ. ID. NO.:3, respectively.
To identify a ligand for this orphan GPCR and to determine whether the full length, 7 TM domain GPR38-A is a functional GPCR, a high-throughput assay was developed which measures Ca^2+ release with the bioluminescent Ca^2+ sensitive aequorin reporter protein (capable of measuring ligand-induced IP3-coupled mobilization of intracellular calcium and concomitant calcium-induced aequorin bioluminescence).
A broad set of peptide and non-peptide molecules was tested at a single concentration in transiently transfected HEK-293/aeq17 cells (100 nM peptide, 10 μM non-peptide).
The aequorin bioluminescence assay is a reliable test for identifying G protein-coupled receptors which couple through the Gα protein subunit family consisting of Gq and G11 which leads to the activation of phospholipase C, mobilization of intracellular calcium and activation of protein kinase C. Measurement of MTL-1A expression in the aequorin-expressing stable reporter cell line 293-AEQ17 (Button, D. et. al., 1993 Cell Calcium 14: p. 663–671.) was performed using a Luminoskan RT luminometer (Labsystems Inc., Gaithersburg, Md.).
293-AEQ17 cells (8×10^5 cells plated 18 hrs. before transfection in a T75 flask) were transfected with 22 μg of human MTL-R1A plasmid DNA: 264 μg lipofectamine. Following approximately 40 hours of expression the apo-aequorin in the cells was charged for 4 hours with coelenterazine (10 μM) under reducing conditions (300 μM reduced glutathione) in ECB buffer (140 mM NaCl, 20 mM KCl, 20 mM HEPES—NaOH [pH=7.4], 5 mM glucose, 1 mM MgCl2, 1 mM CaCl2, 0.1 mg/ml bovine serum albumin). The cells were harvested, washed once in ECB medium and resuspended to 500,000 cells/ml. 100 μl of cell suspension (corresponding to 5×10^4 cells) was then injected into the test plate, and the integrated light emission was recorded over 30 seconds, in 0.5 second units. 20 μL of lysis buffer (0.1% final Triton X-100 concentration) was then injected and the integrated light emission recorded over 10 seconds, in 0.5 second units. The “fractional response” values for each well were calculated by taking the ratio of the integrated response to the initial challenge to the total integrated luminescence including the Triton X-100 lysis response.

[4] = target: T2, motilin receptor spliced form A (MTL-R1A), human (human, UniProt O43193 1-412); assay: displacement of [125I] human motilin from crude membranes of MTL-R1A transfected HEK-293/aeq17 cells
T2 construct: Full-length 412 aa seven-transmembrane receptor, transiently expressed in HEK-293/aeq17 cells; also called MTL-1A; MTL1-A
T2 sequence (O43193 whole entry, canonical isoform): as the sequence (O43193 whole entry) above
Procedure: Crude cell membranes were prepared on ice, 48 hrs. post-transfection. Each T-75 flask was washed twice with 10 ml of PBS, once with 1 ml homogenization buffer (50 mM Tris-HCl [pH 7.4], 10 mM MgCl_2. 10 ml of homogenization buffer was added to each flask, cells were removed by scraping and then homogenized using a Polytron device (Brinkmann, Syosset, N.Y.; 3 bursts of 10 sec. at setting 4). The homogenate was centrifuged for 20 min. at 11,000×g at 0° C. and the resulting crude membrane pellet (chiefly containing cell membranes and nuclei) was resuspended in homogenization buffer supplemented with 1.5% BSA (0.5 ml T75 flask) and kept on ice.
Bound radioligand was separated by rapid vacuum filtration (Brandel 48-well cell harvester) through GF/C filters pretreated for 1 hr. with 0.5% polyethylenimine. After application of the membrane suspension to the filter, the filters were washed 3 times with 3 ml each of ice-cold 50 mM Tris-HCl [pH 7.4], 10 mM MgCl_2, and the bound radioactivity on the filters was quantitated by gamma counting. […] Competition binding data were analyzed by a non-linear curve-fitting program (Prism V, version 2.0; GraphPad Software, San Diego, Calif.).

[5] = target: T2, motilin receptor spliced form A …; assay: cell-based or functional assay
[6] = target: T2, motilin receptor spliced form A …; assay: direct radioligand binding on cell membranes from transfected cells
[7] = target: T2, motilin receptor spliced form A …; assay: cell-based or functional assay; remark: listed apart in the source

| IC50 [4] [nM] | Aequorin Assay (EC50 nM) [5] [nM] | Molecule | other results |
| --- | --- | --- | --- |
| – | – | CC[C@H](C)[C@H](NC(=O)[C@@H]1CCCN1C(=O)[C@@H](NC(=O)[C@@H](N)Cc1ccccc1)C(C)C)C(=O)N[C@@H](Cc1ccccc1)C(=O)N[C@H](C(=O)N[C@@H](Cc1ccc(O)cc1)C(=O)NCC(=O)N[C@@H](CCC(=O)O)C(=O)N[C@@H](CC(C)C)C(=O)N[C@@H](CCC(N)=O)C(=O)N[C@@H](CCCNC(=N)N)C(=O)N[C@@H](CCSC)C(=O)N[C@@H](CCC(N)=O)C(=O)N[C@@H](CCC(=O)O)C(=O)N[C@@H](CCCCN)C(=O)N[C@@H](CCC(=O)O)C(=O)N[C@@H](CCCNC(=N)N)C(=O)N[C@@H](CC(N)=O)C(=O)N[C@@H](CCCCN)C(=O)NCC(=O)N[C@@H](CCC(N)=O)C(=O)O)[C@@H](C)O [human motilin] | bioluminescent response in non-transfected cells [1]: no bioluminescent response above background levels |
| – | – | CCN(CC)CCNC(=O)c1cc(Cl)c(N)cc1OC [metoclopramide] | IC50 [2]: > 10000 nM; EC50 [3]: > 10000 nM; activity in MTL1-A functional and binding assays [3]: inactive |
| – | – | Nc1nc2c(ncn2[C@@H]2O[C@H](COP(=O)(O)OP(=O)(O)OP(O)(O)=S)[C@@H](O)[C@H]2O)c(=O)[nH]1 [GTPγS] | inhibition of [^125I] human motilin binding ([2]; 100 nM GTPγS): > 80% |
| – | – | FVPIFTHSELQKIREKERNKGQ [canine motilin] | IC50 [2]: 0.2 nM |
| – | – | COc1cc(N)c(Cl)cc1C(=O)NC1CCN(CCCOc2ccc(F)cc2)CC1OC (centres unmarked) [cisapride] | IC50 [2]: > 10000 nM; EC50 [3]: > 10000 nM; activity in MTL1-A functional and binding assays [3]: inactive |
| – | – | CC[C@H]1OC(=O)[C@H](C)[C@@H](O[C@H]2C[C@@](C)(OC)[C@@H](O)[C@H](C)O2)[C@H](C)[C@@H](O[C@@H]2O[C@H](C)C[C@H](N(C)C)[C@H]2O)[C@](C)(O)C[C@@H](C)/C(=N\OCOCCOC)[C@H](C)[C@@H](O)[C@]1(C)O [roxithromycin] | IC50 [2]: 613 nM; EC50 [3]: 1950 nM |
| 0.9 | 3.8 | FVPIFTYGELQRM (peptide, UniProt P12872 26-38, looked up, range 1-13; The range counts on mature motilin, not on the precursor entry) [1-13 MTL] | – |
| – | – | FVPIFTY(125I)GELQRMQEKERNKGQ (peptide, UniProt P12872 26-47, looked up, mature) [[125I]-Tyr7-human motilin] | Kd [6]: 0.1 nM |
| 0.2 | 3.9 | FVPIFTYGELQRLQEKERNKGQ (peptide, UniProt P12872 26-47, looked up, mature; Position 13 counts on the mature peptide, not on the precursor) [Leu13 MTL] | – |
| – | 4.4 | FVPIFTHSELQKIREKERNKGQ (peptide, UniProt P19863 1-22, looked up) [canine motilin] | – |
| 14 | 72 | FVPIFTYGELQR (peptide, UniProt P12872 26-37, looked up, range 1-12; The range counts on mature motilin, not on the precursor entry) [1-12 MTL] | – |
| 1100 | > 10000 | LQRMQEKERNKGQ (peptide, UniProt P12872 35-47, looked up, range 10-22; The range counts on mature motilin, not on the precursor entry) [10-22 MTL] | – |
| 127 | 138 | FVPIFTYGELQ (peptide, UniProt P12872 26-36, looked up, range 1-11; The range counts on mature motilin, not on the precursor entry) [1-11 MTL] | – |
| – | – | FVPIFTYGELQRMQEKERNKGQ (peptide, UniProt P12872 26-47, looked up) [human motilin] | bioluminescent response (aequorin assay, 100 nM peptide, transfected HEK-293/aeq17 cells) [7]: > 4 fold over background |
| 0.3 | 4.1 | FVPIFTYGELQRMQEKERN (peptide, UniProt P12872 26-44, looked up, range 1-19; The range counts on mature motilin, not on the precursor entry) [1-19 MTL] | – |
